Experimental data published in the DeepSol protein solubility set.

Experiment: soluble on expression in E. coli; label from the status in PepcDB or PDB records

| Sequence | soluble on expression in E. coli |
| --- | --- |
| MGSDKIHHHHHHMNAHTIPELRYAMSREAIIGHETAWKVSSFGVAQYLHGYDPALLAAIEEAALKLKDSHAVHKHLDLTFITGADRFIPEIKELLHDKLRLERLSDMMGTKLEPYPLSIVGSTVTFMNPRDGAVEWHCDGVPVTELIPLSISNPLVGGHLEIYCDDSETGRAILESGREIPRNRIMRIDHKMNYATLGQFLGVLHRTAPIQYGERVTLVLNQRSVAKPYVDDNRMFYLAADNDHDREWVNELAEDVWTNQLPAYRRFEAEHPTPAPASETQVSGGARGSW | not soluble |
| EVSTTQNDTLKVMTHNVYMLSTNLYPNWGQTERADLIGAADYIKNQDVVILNEVFDNSASDRLLGNLKKEYPNQTAVLGRSSGSEWDKTLGNYSSSTPEDGGVAIVSKWPIAEKIQYVFAKGCGPDNLSNKGFVYTKIKKNDRFVHVIGTHLQAEDSMCGKTSPASVRTNQLKEIQDFIKNKNIPNNEYVLIGGDMNVNKINAENNNDSEYASMFKTLNASVPSYTGHTATWDATTNSIAKYNFPDSPAEYLDYIIASKDHANPSYIENKVLQPKSPQWTVTSWFQKYTYNDYSDHYPVEATISMK | soluble |
| MSLFQSDLKLIVFQHGFFGERFVANLMNYPNSCPSYGACGIDGCTQCKEGLYNFSKNIIAVFSMPDPTTMPDFIENAEDFLPKVIPEADIAVAINLHPDVLAVMPEKLKGKVKALIVPVEEPRWCSPGLAKQIREKCDELGLEFAAPKPFCNLRPSEEHPTINRMIEEMRIGYPEFEIELLEDGKAYVRISRSQPCGCAYYIGVKLRGFDFSEVKEGKMRELWNVVAEAHHSYPCTASMERDNEYNETLLHVGGYIARHAVNRALGYEGDEDIPEHIKHIVLEGGSHHHHHH | soluble |
| MAHHHHHHMLPGDVVEVLVTNSHGTQDADDVERLCKALHLDPCAWCELHRSPFVPEDNFPPWLPLQKPLTLGQLLSAYVDISSSSYLLHQSFFESLFRIYSDSKPSSASSTSTTPSPDPEKVRLLEACASSETGPQLLRLLSKSSTPLCYPSLVDVLEVFSFVNIPLDRLLEVSGPLQTRRYSLANWIPATLPLSPLQLCMREVCARRSANLPAATPVGADAQRVADMLNRAAQDASRDHGNFFFGHTSHPLCCAARSMTRSAAGAGQRGMYVSFSLFGNSLFARQLQAGCTALCNPAQAKSLCSPLFLIGCGTGIAPLIAAVTQLMLRRACTAAGSAPFPCWVFYGARTKAELLYDEVLREALRTGAIAKYEYALSREEDNEKQGRYVTDLVKQNRLMVTDSLRNEGQLFVCGPAKALVSVRQLVKCDLLAEPDDDDSVQEQRLLVLEDRGRLNFDIWSTGNIFE | not soluble |
| MMKALILAGGSGERFWPLSTPETPKQFLKLFGNKSLMRWTFERVLEEMDPKDVIVVTHKDYVERTKKELPELPDENIIAEPMKKNTAPACFIGTKLADDDEPVLVLPADHRIPDTKKFWKTVKKALDALEKYDGLFTFGIVPTRPETGYGYIEIGEELEEGVHKVAQFREKPDLETAKKFVESGRFLWNSGMFLWKAREFIEEVKVCEPSIYENLKDVDPRNFEELKKAYEKVPSISVDYAVMEKSKKVRVVKADFEWSDVGNWSSVREIEGYTEESDEVILVDSDRVFVKTHNKPIAVVGLSDVIVIDTPNGILICKEEYAQKVREVVKKLFRTS | soluble |
| MLIGMSNQTVNQAVSSGVKASPHRFNRFEIKYLITEQDVPALREQLATRMSTDPLSPPGGYRVESLYFDSADLRCYTEKIEGLKFRRKLRIRTYGDGVLTPESTVSVEIKQRVNKVTQKRRLDLPFIYALALGDSTGAAVGEQVDVEKLLEISPENQHALIHEMASFAKNYRLRPIATTKYHREAFVGADAEESSRVTIDHGVSGRDRDFLLGQDLEDRPTVAQGLAVVEIKCDERVPFWLTDMTAQLEMSVIRMSKYCETIEAFHNRPASAFGAVDPIFLEHHHHHH | soluble |
| MDPVRILRHLITGQSAIKRAFPPATLTVIEQAIAHSETLHGGEIVFAVEASLDLPLLLQNQIIRERAIDVFSLLRVWDTEHNNGVLIYLLMADHDVEIVADRGIHTKVDQTIWETACDTMKTTFRHGQFEQGVLAGIDLSTRVLQQFFPASTGKRKSELPDRPVVLLEHHHHHH | not soluble |
| MVKQVFNFNAGPSALPKPALERAQKELLNFNDTQMSVMELSHRSQSYEEVHEQAQNLLRELLQIPNDYQILFLQGGASLQFTMLPMNLLTKGTIGNYVLTGSWSEKALKEAKLLGETHIAASTKANSYQSIPDFSEFQLNENDAYLHITSNNTIYGTQYQNFPEINHAPLIADMSSDILSRPLKVNQFGMIYAGAQKNLGPSGVTVVIVKKDLLNTKVEQVPTMLQYATHIKSDSLYNTPPTFSIYMLRNVLDWIKDLGGAEAIAKQNEEKAKIIYDTIDESNGFYVGHAEKGSRSLMNVTFNLRNEELNQQFLAKAKEQGFVGLNGHRSVGGCRASIYNAVPIDACIALRELMIQFKENA | soluble |
